Data published in publication PMC12002099, “Recombinant Production and Characterization of Six Ene‐reductases from Penicillium steckii” (Chembiochem, 2025).

Key:
Test in all cases: steady-state kinetics, NADPH consumption, Michaelis-Menten fit
Format in all cases: biochemical, Penicillium steckii
O=C1C=CC(=O)C=C1 = conditions: co-substrate NADPH
Text: steady-state kinetics, NADPH consumption, Michaelis-Menten fit on PsOYE4

[1] = substrate: NC(=O)C1=CN([C@@H]2O[C@H](COP(=O)(O)OP(=O)(O)OC[C@H]3O[C@@H](n4cnc5c(N)ncnc54)[C@H](OP(=O)(O)O)[C@@H]3O)[C@@H](O)[C@H]2O)C=CC1; conditions: co-substrate p-benzoquinone
Text: (§1) steady-state kinetics, NADPH consumption, Michaelis-Menten fit on PsOYE5

[2] = substrate: O=C1C=CC(=O)C=C1; conditions: co-substrate NADPH; remark: listed apart in the source
Text: as §1

[3] = substrate: NC(=O)C1=CN([C@@H]2O[C@H](COP(=O)(O)OP(=O)(O)OC[C@H]3O[C@@H](n4cnc5c(N)ncnc54)[C@H](OP(=O)(O)O)[C@@H]3O)[C@@H](O)[C@H]2O)C=CC1; conditions: co-substrate p-benzoquinone; remark: listed apart in the source
Text: (§2) steady-state kinetics, NADPH consumption, Michaelis-Menten fit on PsOYE3

[4] = substrate: O=C1C=CC(=O)C=C1; conditions: co-substrate NADPH; remark: listed apart in the source
Text: as §2

[5] = substrate: NC(=O)C1=CN([C@@H]2O[C@H](COP(=O)(O)OP(=O)(O)OC[C@H]3O[C@@H](n4cnc5c(N)ncnc54)[C@H](OP(=O)(O)O)[C@@H]3O)[C@@H](O)[C@H]2O)C=CC1; conditions: co-substrate p-benzoquinone; remark: listed apart in the source
Text: (§3) steady-state kinetics, NADPH consumption, Michaelis-Menten fit on PsOYE6

[6] = substrate: O=C1C=CC(=O)C=C1; conditions: co-substrate NADPH; remark: listed apart in the source
Text: as §3

[7] = substrate: NC(=O)C1=CN([C@@H]2O[C@H](COP(=O)(O)OP(=O)(O)OC[C@H]3O[C@@H](n4cnc5c(N)ncnc54)[C@H](OP(=O)(O)O)[C@@H]3O)[C@@H](O)[C@H]2O)C=CC1; conditions: co-substrate p-benzoquinone; remark: listed apart in the source
Text: (§4) steady-state kinetics, NADPH consumption, Michaelis-Menten fit on PsOYE1

[8] = substrate: O=C1C=CC(=O)C=C1; conditions: co-substrate NADPH; remark: listed apart in the source
Text: as §4

Molecule: PsOYE4 (Penicillium steckii)
- Km (O=C1C=CC(=O)C=C1): 1100 ± 100 µM
- kcat (O=C1C=CC(=O)C=C1): 28 ± 1 s⁻¹
- kcat/Km (O=C1C=CC(=O)C=C1): 26000 M⁻¹ s⁻¹

B1: PsOYE5 (Penicillium steckii) (protein)
chain: MSSSAATRFECADVDPSVLGQPLQFTFSGRSAPNRFLKGAMSERLASFSYSDLSARGIPSPTLIQAYKGWGESQIGINLTGNVMIDPGHLEAAGNPVIPRNAEFSGERFERFKELATAGKENGMLIIAQVGHPGRQTPQYLQPNPISASDVQVQGEPMGMKFAQPRAATHEDIANIIDGFAHAAEYLDKAGFDGIELHGAHGYLLSQFLSSATNLRTDQYGGDLKNRMRLILEVRDEIAKRVRKDFVVGIKINSVEFQDKGFQPDDAKELCRALEEHAFDFVELSGGTYEKSPFAEQKRPSTIERESLFLDFARLIVPGLTKTKTYVTGGFKTVEAMVKALETVDGVGLGRPLCQEPNLCAHILSGKVKGAIDQKIDMYNFGATAGAAGVQIQQMGNHLQPIDLSQEENVGKLFAALGPWLAARQKDVELYRSPAVADYVVPYSKTSML
- Km [1]: 500 ± 200 µM
- kcat [1]: 70 ± 14 s⁻¹
- kcat/Km [1]: 150000 M⁻¹ s⁻¹
- Km [2]: 900 ± 100 µM
- kcat [2]: 23.2 ± 0.9 s⁻¹
- kcat/Km [2]: 26000 M⁻¹ s⁻¹

B2: PsOYE3 (Penicillium steckii) (protein)
chain: MAQSNHPDIANKPAEGISYYTPAQVPPAGSAAIPQSDGAQPPKLFTPFQVRGVTFHNRIGLSPLCQYSADDGHMTDWHMAHLGGIAQRGPGFLMVEATAVQANGRITPQDHGLWKDSQIEPLRRVVEFIHSQNQVIGVQLAHAGRKASTVAPWLSSADTATEAVGGWPENVKGPSDIPFHDKFPVPKALTLNEIEQFKQDWVSALKRAVKAGADFVEIHNAHGYLLMSFLSPASNKRTDQYGGSFENRIRLTMEIAQLTRDNIPKDMPVFLRVSATDWLEEAMPNEPSWRIEDTVQLAKALADSGNIDVLDVSSGGNHRAQHIHAKAAFQAPFAIEVKKAVGDRLQVGSVGMIDSAQLASSLLENDGLDFVLVGRGFQKNPGLVWAWAEELDVEISMANQIRWGFSSRGGGVYLKKRHGKM
- Km [3]: 200 ± 0 µM
- kcat [3]: 64 ± 4 s⁻¹
- kcat/Km [3]: 350000 M⁻¹ s⁻¹
- Km [4]: 8 ± 1 µM
- kcat [4]: 19.6 ± 1.3 s⁻¹
- kcat/Km [4]: 2.45e+06 M⁻¹ s⁻¹

B3: PsOYE6 (Penicillium steckii) (protein)
chain: MSSKLFNPMQVGRMQLSTRLAMAPMTRFRVDDDHNPLPIVKDYYAQRGSIPGTLLITEATIISPQAGGYKNVPGIYTDSQIAAWKEITDAVHAKGSYIYLQLWALGRVADPNYLRELGNYDLVSASDIPAGEGAPTPRPLSESDIQSFVKDYAQAAKNAVAAGFDGVEIHAANGYLIDQFIQDNSNQRNDSYGGSVENRARFALEVTQAVVDAIGADRTGIRYSPFSTFQGMRMADPIPQFSYLAKETAKFKLAFTHLVEPRIAGNADVEETPDELEFFLKEYGNATPVIIAGGYKAESAIQAVDEKYKEFDTVIGIGRPWTSNPDLPFRIKANVPLVPYDRDTFYNPKDPKGYIDWAFSPEFKATQVGA
- Km [5]: 300 ± 100 µM
- kcat [5]: 53 ± 7 s⁻¹
- kcat/Km [5]: 170000 M⁻¹ s⁻¹
- Km [6]: 1100 ± 100 µM
- kcat [6]: 25.5 ± 0.9 s⁻¹
- kcat/Km [6]: 23000 M⁻¹ s⁻¹

B4: PsOYE1 (Penicillium steckii) (protein)
chain: MTIQYISGEESGLFRPLTISNGSLTLRHRIIHAPLTRNRGVPANPISTPENPNRIWVPGDLIAEYYGQRATEGGLLISEGIPPSLESNGMPGVPGLFTPEQANGWKKVVDAVHAKGGFIFCQLWHAGRATIPQMTGSPAVCPSASVWDSPKECYSHPPVGSTEPVPYANHPPIELSVPHIKQTIQDYCNAAKTAMEIGFDGVEIHGGNGYLPEQFLSSNINKRTDDYGGSPEKRCKFVFELMDEVAKTIGEQNLSIRLSPFGLFNQARGEQRLETWTHLCEGLKKAHPALSYVSFVEPRFEQIFSEEEKDTFLQSWGLKDVTLDRFRKIFGETPFFSAGGFDDKNSWNIVESGKYDGLLFGRYFISNPDLVHRLAKGLPLAPYDRTRFYGPFEDNVFHYTDYPTIDKQ
- Km [7]: 300 ± 100 µM
- kcat [7]: 63 ± 8 s⁻¹
- kcat/Km [7]: 200000 M⁻¹ s⁻¹
- Km [8]: 700 ± 100 µM
- kcat [8]: 23.4 ± 1 s⁻¹
- kcat/Km [8]: 33000 M⁻¹ s⁻¹
